{
  "source": "paper PMC4004251",
  "origin": "cited, not measured here",
  "conditions_in_all_cases": "folded GB1 (the article states the structure is stable above pH 3)",
  "key": {"Glu27": {"biological_target": "Glu27 (UniProt position 253, DAATAEKVFKQ)"}, "Glu15": {"biological_target": "Glu15 (UniProt position 241, KTLKGETTTEA)"}, "Glu42": {"biological_target": "Glu42 (UniProt position 268, NGVDGEWTYDD)"}},
  "data": [
    {"substance": "Immunoglobulin G-binding protein G, B1 domain (GB1) (Streptococcus sp. group G)", "values": [
      {"measurement": "pKa", "setting": "Glu27", "value": "about 4.5"},
      {"measurement": "pKa", "setting": "Glu15", "value": "near 4.5"},
      {"measurement": "pKa", "setting": "Glu42", "value": "about 4.5"}
    ]}
  ]
}
